System: heterologous proteins fused to HST-I
Test: HST-I catalysed protein conjugation (optical assay to monitor HST-I)
Type: biochemical, Drosophila melanogaster
Method: Using an optical assay developed to monitor HST-I, heterologous proteins can be covalently modified at their C-terminus by cholesterol with a t1/2 of 10-20 min at pH 7.1, 25 degrees Celsius.

B1: HST-I: ~26 kDa autocatalytic C-terminal segment of the Hedgehog precursor from Drosophila melanogaster, SEQ ID NO.: 001 (protein)
chain: GCFTPESTALLESGVRKPLGELSIGDRVLSMTANGQAVYSEVILFMDRNLEQMQNFVQLHTDGGAVLTVTPAHLVSVWQPESQKLTFVFADRIEEKNQVLVRDVETGELRPQRVVKVGSVRSKGVVAPLTREGTIVVNSVAASCYAVINSQSLAHWGLAPMRLLSTLEAWLPAKEQLHSSPKVVSSAQQQNGIHWYANALYKVKDYVLPQSWRHD
modifications: Drosophila melanogaster
For B1, the “time for protein conjugation” value (in the absence of accessory proteins) was < 60 min and the “half time of conjugation” value (physiological buffer, room temperature) was ≤ 1 h.

Source: US12077795B2, “Method for biocatalytic protein-oligonucleotide conjugation” (The Research Foundation for The State University of New York, priority 2016, dated 2024)
